Experimental data taken from IntAct's records for PubMed 17525332.

B1: Zinc finger CCHC domain-containing protein 8 (Homo sapiens), Q6NZY4 (parent)
chain: MAAEVYFGDLELFEPFDHPEESIPKPVHTRFKDDDGDEEDENGVGDAELRERLRQCEETIEQLRAENQELKRKLNILTRPSGILVNDTKLDGPILQILFMNNAISKQYHQEIEEFVSNLVKRFEEQQKNDVEKTSFNLLPQPSSIVLEEDHKVEESCAIKNNKEAFSVVGSVLYFTNFCLDKLGQPLLNENPQLSEGWEIPKYHQVFSHIVSLEGQEIQVKAKRPKPHCFNCGSEEHQMKDCPMPRNAARISEKRKEYMDACGEANNQNFQQRYHAEEVEERFGRFKPGVISEELQDALGVTDKSLPPFIYRMRQLGYPPGWLKEAELENSGLALYDGKDGTDGETEVGEIQQNKSVTYDLSKLVNYPGFNISTPRGIPDEWRIFGSIPMQACQQKDVFANYLTSNFQAPGVKSGNKRSSSHSSPGSPKKQKNESNSAGSPADMELDSDMEVPHGSQSSESFQFQPPLPPDTPPLPRGTPPPVFTPPLPKGTPPLTPSDSPQTRTASGAVDEDALTLEELEEQQRRIWAALEQAESVNSDSDVPVDTPLTGNSVASSPCPNELDLPVPEGKTSEKQTLDEPEVPEIFTKKSEAGHASSPDSEVTSLCQKEKAELAPVNTEGALLDNGSVVPNCDISNGGSQKLFPADTSPSTATKIHSPIPDMSKFATGITPFEFENMAESTGMYLRIRSLLKNSPRNQQKNKKASE
B2: Origin recognition complex subunit 3 (Homo sapiens), Q9UBD5 (parent)
chain: MATSSMSKGCFVFKPNSKKRKISLPIEDYFNKGKNEPEDSKLRFETYQLIWQQMKSENERLQEELNKNLFDNLIEFLQKSHSGFQKNSRDLGGQIKLREIPTAALVLGVNVTDHDLTFGSLTEALQNNVTPYVVSLQAKDCPDMKHFLQKLISQLMDCCVDIKSKEEESVHVTQRKTHYSMDSLSSWYMTVTQKTDPKMLSKKRTTSSQWQSPPVVVILKDMESFATKVLQDFIIISSQHLHEFPLILIFGIATSPIIIHRLLPHAVSSLLCIELFQSLSCKEHLTTVLDKLLLTTQFPFKINEKVLQVLTNIFLYHDFSVQNFIKGLQLSLLEHFYSQPLSVLCCNLPEAKRRINFLSNNQCENIRRLPSFRRYVEKQASEKQVALLTNERYLKEETQLLLENLHVYHMNYFLVLRCLHKFTSSLPKYPLGRQIRELYCTCLEKNIWDSEEYASVLQLLRMLAKDELMTILEKCFKVFKSYCENHLGSTAKRIEEFLAQFQSLDETKEEEDASGSQPKGLQKTDLYHLQKSLLEMKELRRSKKQTKFEVLRENVVNFIDCLVREYLLPPETQPLHEVVYFSAAHALREHLNAAPRIALHTALNNPYYYLKNEALKSEEGCIPNIAPDICIAYKLHLECSRLINLVDWSEAFATVVTAAEKMDANSATSEEMNEIIHARFIRAVSELELLGFIKPTKQKTDHVARLTWGGC
B3: DNA replication complex GINS protein PSF2 (Homo sapiens), Q9Y248 (parent)
chain: MDAAEVEFLAEKELVTIIPNFSLDKIYLIGGDLGPFNPGLPVEVPLWLAINLKQRQKCRLLPPEWMDVEKLEKMRDHERKEETFTPMPSPYYMELTKLLLNHASDNIPKADEIRTLVKDMWDTRIAKLRVSADSFVRQQEAHAKLDNLTLMEINTSGTFLTQALNHMYKLRTNLQPLESTQSQDF

Variants of: B1
Conditions: with brca1_human BRCA1, P38398
Target sequence in this assay (P38398 whole entry, looked up): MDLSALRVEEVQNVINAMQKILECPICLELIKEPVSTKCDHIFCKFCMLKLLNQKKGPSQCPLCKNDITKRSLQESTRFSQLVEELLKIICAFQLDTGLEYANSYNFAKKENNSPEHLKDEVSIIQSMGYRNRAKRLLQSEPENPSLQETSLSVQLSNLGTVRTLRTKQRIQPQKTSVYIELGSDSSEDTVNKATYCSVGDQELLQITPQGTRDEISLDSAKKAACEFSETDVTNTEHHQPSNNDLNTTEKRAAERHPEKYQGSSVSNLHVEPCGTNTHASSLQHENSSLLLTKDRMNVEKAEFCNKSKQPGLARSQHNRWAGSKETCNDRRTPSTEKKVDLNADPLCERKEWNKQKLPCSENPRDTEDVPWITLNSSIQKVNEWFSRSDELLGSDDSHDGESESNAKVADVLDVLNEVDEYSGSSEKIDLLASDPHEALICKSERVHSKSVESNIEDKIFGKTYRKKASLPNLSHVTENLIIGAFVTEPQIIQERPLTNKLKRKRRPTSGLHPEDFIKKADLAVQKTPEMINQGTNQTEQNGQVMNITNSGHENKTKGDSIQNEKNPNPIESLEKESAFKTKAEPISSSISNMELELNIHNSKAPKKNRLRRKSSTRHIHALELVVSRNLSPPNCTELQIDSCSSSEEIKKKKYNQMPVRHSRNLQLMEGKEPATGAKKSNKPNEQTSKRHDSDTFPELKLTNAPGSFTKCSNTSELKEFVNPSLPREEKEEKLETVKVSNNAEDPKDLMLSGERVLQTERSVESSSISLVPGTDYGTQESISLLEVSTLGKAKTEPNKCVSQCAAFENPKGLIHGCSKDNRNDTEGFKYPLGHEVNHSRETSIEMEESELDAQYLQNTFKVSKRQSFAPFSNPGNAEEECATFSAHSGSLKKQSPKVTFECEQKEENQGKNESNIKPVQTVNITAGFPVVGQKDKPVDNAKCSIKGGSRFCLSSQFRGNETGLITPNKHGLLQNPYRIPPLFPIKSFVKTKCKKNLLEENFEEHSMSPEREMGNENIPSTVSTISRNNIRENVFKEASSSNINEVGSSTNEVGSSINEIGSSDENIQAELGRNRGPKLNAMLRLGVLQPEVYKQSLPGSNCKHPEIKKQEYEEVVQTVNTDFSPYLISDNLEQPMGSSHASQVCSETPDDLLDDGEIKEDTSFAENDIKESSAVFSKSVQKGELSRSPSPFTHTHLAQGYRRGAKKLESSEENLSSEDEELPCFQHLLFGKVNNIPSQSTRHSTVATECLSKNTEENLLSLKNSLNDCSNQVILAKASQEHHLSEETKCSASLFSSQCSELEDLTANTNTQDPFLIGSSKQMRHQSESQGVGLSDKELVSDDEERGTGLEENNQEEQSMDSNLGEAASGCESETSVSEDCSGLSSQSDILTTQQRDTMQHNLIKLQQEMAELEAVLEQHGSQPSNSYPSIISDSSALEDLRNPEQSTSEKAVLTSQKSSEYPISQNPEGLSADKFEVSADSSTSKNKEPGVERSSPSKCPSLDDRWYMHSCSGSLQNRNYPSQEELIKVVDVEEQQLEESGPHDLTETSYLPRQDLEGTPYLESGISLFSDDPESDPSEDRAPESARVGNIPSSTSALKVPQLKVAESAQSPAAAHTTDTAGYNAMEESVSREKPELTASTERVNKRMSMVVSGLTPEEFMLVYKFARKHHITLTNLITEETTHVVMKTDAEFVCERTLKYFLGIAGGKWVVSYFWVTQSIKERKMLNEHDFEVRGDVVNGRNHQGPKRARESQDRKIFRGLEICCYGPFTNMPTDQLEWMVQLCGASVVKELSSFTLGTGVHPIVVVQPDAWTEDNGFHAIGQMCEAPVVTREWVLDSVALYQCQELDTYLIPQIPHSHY
For S456A, the “effect of a mutation on the interaction” value was “disrupting interaction”.

Variants of: B2
Conditions: with brca1_human BRCA1, P38398
Target sequence in this assay (P38398 whole entry, looked up): as above
With S516A the “effect of a mutation on the interaction” value was “disrupting interaction”.

Variants of: B3
Conditions: with chk2_human CHEK2, O96017
Sequence of chk2_human CHEK2, O96017 (O96017 whole entry): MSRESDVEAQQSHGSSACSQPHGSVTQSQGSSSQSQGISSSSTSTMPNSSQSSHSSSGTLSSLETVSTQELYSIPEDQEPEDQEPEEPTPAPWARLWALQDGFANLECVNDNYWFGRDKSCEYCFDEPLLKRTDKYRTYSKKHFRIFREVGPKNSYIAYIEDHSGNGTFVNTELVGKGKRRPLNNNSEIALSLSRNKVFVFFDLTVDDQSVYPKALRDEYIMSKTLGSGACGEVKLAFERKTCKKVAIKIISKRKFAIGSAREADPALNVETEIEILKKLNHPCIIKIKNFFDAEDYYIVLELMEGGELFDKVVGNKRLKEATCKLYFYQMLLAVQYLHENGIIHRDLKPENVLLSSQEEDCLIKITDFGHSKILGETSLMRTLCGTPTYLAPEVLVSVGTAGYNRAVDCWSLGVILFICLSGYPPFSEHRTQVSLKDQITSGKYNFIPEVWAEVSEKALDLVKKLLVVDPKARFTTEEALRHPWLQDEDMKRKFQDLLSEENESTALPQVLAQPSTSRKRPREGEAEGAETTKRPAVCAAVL
In the case of T180A;S182A, the “effect of a mutation on the interaction” value is reported as “disrupting interaction”.
